To fix the notation:
B2: Tah1p-Pih1p 187-344 complex (complex, yeast)
chain 1: MSQFEKQKEQGNSLFKQGLYREAVHCYDQLITAQPQNPVGYSNKAMALIKLGEYTQAIQMCQQGLRYTSTAEHVAIRSKLQYRLELAQGAVGSVQIPVVEVDELPEGYDRS
chain 2: HKIIEEEAGDPMSILRGRNDDGDDNNDPDDGTLPPLFPIENKISGAKIEEIDKNEIAHRNLKQAPAPAPAPHEQQEDVPEYEVKMKRFKGAAYKLRILIENKAPNSKPDRFSPSYNFAENILYINGKLSIPLPRDIVVNAADIKIFHIRKERTLYIYI
notes: Tah1, S. cerevisiae, full length; also called Tah1-Pih1-CS heterodimer
B3: dimeric C-terminal domain of Hsp90 (Hsp90 600-709) (domain or fragment)
chain: not shown
notes: Hsp90 residues 600-709, dimeric C-terminal domain; also called cHsp90; C-Hsp90
B6: human Spagh/RPAP3 120-395 (tandem TPR region) (domain or fragment, UniProt Q9H6T3 120-395, looked up)
chain: ESEEDGIHVDSQKALVLKEKGNKYFKQGKYDEAIDCYTKGMDADPYNPVLPTNRASAYFRLKKFAVAESDCNLAVALNRSYTKAYSRRGAARFALQKLEEAKKDYERVLELEPNNFEATNELRKISQALASKENSYPKEADIVIKSTEGERKQIEAQQNKQQAISEKDRGNGFFKEGKYERAIECYTRGIAADGANALLPANRAMAYLKIQKYEEAEKDCTQAILLDGSYSKAFARRGTARTFLGKLNEAKQDFETVLLLEPGNKQAVTELSKIKK
notes: Spagh/RPAP3, human, residues 120-395, tandem TPR region; GST fusion with a PreScission site; also called Spagh/RPAP3-TPR2 (label of the tandem region in the text); wild-type Spagh/RPAP3
B7: Spagh/RPAP3 120-395 N172E (domain or fragment, human, UniProt Q9H6T3 120-395, looked up)
chain: ESEEDGIHVDSQKALVLKEKGNKYFKQGKYDEAIDCYTKGMDADPYNPVLPTERASAYFRLKKFAVAESDCNLAVALNRSYTKAYSRRGAARFALQKLEEAKKDYERVLELEPNNFEATNELRKISQALASKENSYPKEADIVIKSTEGERKQIEAQQNKQQAISEKDRGNGFFKEGKYERAIECYTRGIAADGANALLPANRAMAYLKIQKYEEAEKDCTQAILLDGSYSKAFARRGTARTFLGKLNEAKQDFETVLLLEPGNKQAVTELSKIKK
notes: Spagh/RPAP3, human, residues 120-395, N172E in TPR1; also called N172E-TPR1 mutant
B8: Spagh/RPAP3 120-395 N321E (domain or fragment, human, UniProt Q9H6T3 120-395, looked up)
chain: ESEEDGIHVDSQKALVLKEKGNKYFKQGKYDEAIDCYTKGMDADPYNPVLPTNRASAYFRLKKFAVAESDCNLAVALNRSYTKAYSRRGAARFALQKLEEAKKDYERVLELEPNNFEATNELRKISQALASKENSYPKEADIVIKSTEGERKQIEAQQNKQQAISEKDRGNGFFKEGKYERAIECYTRGIAADGANALLPAERAMAYLKIQKYEEAEKDCTQAILLDGSYSKAFARRGTARTFLGKLNEAKQDFETVLLLEPGNKQAVTELSKIKK
notes: Spagh/RPAP3, human, residues 120-395, N321E in TPR2; also called N321E-TPR2 mutant

Common to all, as to settings: both partners purified
The target of experiment [1] is B6. As to the kind of experiment: ITC; 2 mM … injected into 80 μM Spagh/RPAP3 120-395; 10 mM Tris pH 7.5, 5 mM NaCl; 10°C; two site fitting. (In general: Isothermal titration calorimetry measures the heat released or taken up as one component is titrated into another.)
Experiment [2] has as its target B6. As to the kind of experiment: ITC; 2 mM … injected into 80 μM Spagh/RPAP3 120-395; 10 mM Tris pH 7.5, 5 mM NaCl; 30°C; two site fitting.
The target of experiment [3] is B7. As to the kind of experiment: ITC; 2 mM … injected into 80 μM Spagh/RPAP3 120-395 mutants (N172E, N321E, N172E-N321E); 10 mM Tris pH 7.5, 5 mM NaCl; temperature not given; two site model.
Experiment [4] concerns the target B8. The experiment is described as above.
Experiment [5] addresses B3. As to the kind of experiment: SEC; calibrated gel-filtration column; cHsp90, Tah1-Pih1p 187-344 and their mixture. For orientation: SEC sorts molecules by how far they enter the pores of the column.
Experiment [6] concerns the target T1, Tah1 (yeast, full-length) (yeast, UniProt P25638 1-111).
T1 construct: Tah1, S. cerevisiae, full length (C-terminal residue Ser 111); Selenomethionine-labelled Tah1 was used for the crystal structure; also called Tah1p; SeMetTah1
T1 sequence (looked up): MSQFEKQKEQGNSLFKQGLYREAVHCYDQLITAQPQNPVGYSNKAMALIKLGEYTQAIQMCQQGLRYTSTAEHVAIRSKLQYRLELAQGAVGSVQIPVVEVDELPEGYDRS
The experiment is described as above.

Experiment [7] concerns the target B2. The description is as above.
Experiment [8] deals with T2, FLAG-tagged Tah1 (yeast, UniProt P25638 1-111).
T2 construct: Tah1p, S. cerevisiae; also called FLAG-Tah1; Flag-Tah1p
T2 sequence: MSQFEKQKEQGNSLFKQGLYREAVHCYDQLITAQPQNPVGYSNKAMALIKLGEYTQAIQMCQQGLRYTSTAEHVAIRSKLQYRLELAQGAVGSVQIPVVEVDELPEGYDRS
As to the kind of experiment: co-IP; 70 μM Flag-Tah1p, Hsp90 600-709 and increasing concentrations of Cpr6 in 20 mM HEPES pH 7.5, 150 mM NaCl, 10% glycerol, 0.5% Igepal, 2 mM EDTA; Anti-Flag M2 magnetic beads; SDS-PAGE.

Experiment [9] addresses T3, Cpr6 (monomeric TPR-domain Hsp90 cochaperone) (UniProt P53691 1-371).
T3 construct: Cpr6, TPR-domain Hsp90 cochaperone
The description is as above.

The target in experiment [10] is T4, mouse Pih1 PIH domain 1-200 (His-mPih1 1-200) (mouse, UniProt Q9CQJ2 1-200).
T4 construct: Pih1 (Pih1D1), mouse, residues 1-200; SeMet protein was used for the crystal structure 4CKT; The ITC methods say only 'Pih1' / 'mPIH domain'; also called mPIH domain; Pih1D1
T4 sequence (Q9CQJ2 1-200): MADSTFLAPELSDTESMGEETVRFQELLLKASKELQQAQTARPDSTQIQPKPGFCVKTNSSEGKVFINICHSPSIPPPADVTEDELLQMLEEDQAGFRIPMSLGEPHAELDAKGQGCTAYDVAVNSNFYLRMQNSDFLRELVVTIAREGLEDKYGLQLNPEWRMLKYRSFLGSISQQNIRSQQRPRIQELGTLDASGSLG
As to the kind of experiment: ITC; peptides at 350 μM injected into 30 μM Pih1 (mPIH domain) at 30°C; 20 mM Tris pH 7.5, 5 mM NaCl.

Experiment [11] concerns the target T5, His6-Hsp90β (human, UniProt P08238 1-724).
T5 construct: Hsp90 beta, human; also called His-tagged Hsp90; human Hsp90β
The experiment can be described thus: pull-down; His6-Hsp90β as bait, Spagh/RPAP3 120-395 tandem TPR segment (wild type and mutants) as prey.

Square brackets hold non-standard residues; d marks the D form. Ends that are not written are not given here. pT = C[C@@H](OP(=O)(O)O)[C@H](N)C(=O)O; pS = N[C@@H](COP(=O)(O)O)C(=O)O

T5 sequence (P08238 whole entry): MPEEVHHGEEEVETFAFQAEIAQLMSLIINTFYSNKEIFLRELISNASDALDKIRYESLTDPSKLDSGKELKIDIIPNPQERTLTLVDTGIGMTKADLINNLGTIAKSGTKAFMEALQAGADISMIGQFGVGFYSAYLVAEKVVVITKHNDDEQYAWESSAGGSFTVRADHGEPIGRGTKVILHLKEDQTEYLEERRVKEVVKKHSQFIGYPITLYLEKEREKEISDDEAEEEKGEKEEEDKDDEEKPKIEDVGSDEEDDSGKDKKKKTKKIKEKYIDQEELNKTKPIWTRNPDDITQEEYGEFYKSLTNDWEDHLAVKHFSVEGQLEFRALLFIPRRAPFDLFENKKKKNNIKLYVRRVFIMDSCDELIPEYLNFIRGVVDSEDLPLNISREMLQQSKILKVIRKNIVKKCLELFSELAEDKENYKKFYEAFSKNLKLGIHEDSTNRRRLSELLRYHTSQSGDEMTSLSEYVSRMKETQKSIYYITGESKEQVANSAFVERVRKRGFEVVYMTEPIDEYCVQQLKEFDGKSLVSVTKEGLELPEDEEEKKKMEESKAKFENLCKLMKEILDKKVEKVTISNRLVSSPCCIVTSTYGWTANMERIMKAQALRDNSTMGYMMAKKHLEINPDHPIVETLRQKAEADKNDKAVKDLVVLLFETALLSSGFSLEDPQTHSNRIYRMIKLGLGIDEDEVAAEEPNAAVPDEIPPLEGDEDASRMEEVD
T3 sequence (P53691 whole entry): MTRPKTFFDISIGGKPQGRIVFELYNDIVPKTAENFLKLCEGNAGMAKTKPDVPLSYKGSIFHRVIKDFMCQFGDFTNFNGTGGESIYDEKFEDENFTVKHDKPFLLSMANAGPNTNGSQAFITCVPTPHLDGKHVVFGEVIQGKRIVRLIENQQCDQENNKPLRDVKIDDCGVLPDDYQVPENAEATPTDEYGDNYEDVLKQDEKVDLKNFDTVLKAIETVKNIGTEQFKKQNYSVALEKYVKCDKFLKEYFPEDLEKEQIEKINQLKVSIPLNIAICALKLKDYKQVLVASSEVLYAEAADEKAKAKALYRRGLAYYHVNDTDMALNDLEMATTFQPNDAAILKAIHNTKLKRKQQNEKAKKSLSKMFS

B1: human Hsp90 C-terminal peptide DDTSRMEEVD (peptide)
peptide: DDTSRMEEVD
notes: human Hsp90 C-terminal peptide; also called C-terminal Hsp90 peptide
As to B1, in [1], the “KD of the moderate-affinity site (two site fitting)” value was 24 µM and the “KD of the tight site (two site fitting)” value worked out at 1 µM. In addition, in [2], the “KD of the moderate-affinity site (two site fitting)” value came out at 23.6 µM, the “KD of the tight site (two site fitting)” value is 1.49 µM and the “stoichiometry N” value was approximately 2 peptides per Spagh/RPAP3. In addition, the “KD of the TPR1 site (mutated; two site model)” value in experiment [3] was approximately 231 µM. In addition, in experiment [4], the “KD of the TPR1 site (non-mutated; two site model)” value amounted to 0.94 µM.

B2: the “stoichiometry N” value in experiment [5] was 1 Tah1-Pih1 heterodimer per cHsp90 chain (2:2:2).

Consider B3, for which the binding result in [6], in experiment [7], in experiment [8] and in experiment [9] was “binds” in each case.

B4: Mre11 phosphopeptide MANDpSDDSI (peptide)
peptide: MAND[pS]DDSI
notes: Mre11, phosphorylation site 554-MANDpSDDSIS-563 found among sites in human proteins
Regarding B4, binding in [10] was characterised by a dissociation constant (Kd) of 6.4 µM.

B5: Tel2 peptide with pSer492 replaced by phosphothreonine (peptide)
peptide: QGSDSELD[pT]DDEF
notes: also called phosphothreonine Tel2 peptide
B5 came in with a Kd in [10] of 45.7 µM.

In the case of B6, the binding result in [11] is reported as “binds”.

Regarding B7, in [11], the binding result is “binds”.

As for B8, the binding result in [11] is recorded as “binds”.

The term stoichiometry N denotes a count of units in the complex or per binding partner. The Kd is the concentration at which binding is half-saturated. A higher Kd goes with a looser complex.

For the origin of these results see publication PMC4058522, “Structural Basis for Phosphorylation-Dependent Recruitment of Tel2 to Hsp90 by Pih1” (Structure(London, England:1993), 2014).
